Numbered stars: 1 amine (or outer) side, 2 acyl side, 3 side chain; on linkers, the order of the positions; unused ones are H or OH. Bridge positions count the residues as written; N and C are the ends. Side chains are listed from the residue outwards. Ends that are not written are not given here. * marks the point of attachment. C20 diacid = O=C(O)CCCCCCCCCCCCCCCCCCC(=O)*; γGlu = O=C(O)[C@H](CCC(=O)[*:2])N[*:1]; AEEA = NCCOCCOCC(=O)O
Key:
[1] = target: T1, rat calcitonin receptor (rat, UniProt P32214 25-516); assay: SPA competition vs 125I-calcitonin, membranes with rat CTR (Assay VIII)
T1 construct: whole, on cells; Cell membranes of transiently transfected BHK tk'ts 13 cells (Assay VIII); also called rCTR; rCT
T1 sequence (looked up): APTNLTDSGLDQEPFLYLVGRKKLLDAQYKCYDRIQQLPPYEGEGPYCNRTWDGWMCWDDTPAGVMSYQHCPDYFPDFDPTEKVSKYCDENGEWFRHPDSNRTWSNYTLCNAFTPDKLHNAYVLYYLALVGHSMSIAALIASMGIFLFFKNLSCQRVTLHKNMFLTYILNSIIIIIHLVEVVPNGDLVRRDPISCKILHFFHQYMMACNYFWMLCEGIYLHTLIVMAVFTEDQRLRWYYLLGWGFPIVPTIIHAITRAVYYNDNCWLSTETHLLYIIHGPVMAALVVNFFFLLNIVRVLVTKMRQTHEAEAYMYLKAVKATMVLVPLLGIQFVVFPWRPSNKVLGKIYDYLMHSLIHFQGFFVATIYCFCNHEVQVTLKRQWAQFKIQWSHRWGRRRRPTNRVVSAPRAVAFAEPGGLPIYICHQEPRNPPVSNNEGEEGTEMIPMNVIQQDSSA

[2] = target: T2, human calcitonin receptor (human, UniProt P30988 25-474); assay: ratio IC50 human calcitonin receptor / IC50 human amylin receptor
T2 construct: whole, on cells; Cell membranes of a stably transfected BHK cell line (Assay VII); also called hCTR; hCT
T2 sequence (looked up): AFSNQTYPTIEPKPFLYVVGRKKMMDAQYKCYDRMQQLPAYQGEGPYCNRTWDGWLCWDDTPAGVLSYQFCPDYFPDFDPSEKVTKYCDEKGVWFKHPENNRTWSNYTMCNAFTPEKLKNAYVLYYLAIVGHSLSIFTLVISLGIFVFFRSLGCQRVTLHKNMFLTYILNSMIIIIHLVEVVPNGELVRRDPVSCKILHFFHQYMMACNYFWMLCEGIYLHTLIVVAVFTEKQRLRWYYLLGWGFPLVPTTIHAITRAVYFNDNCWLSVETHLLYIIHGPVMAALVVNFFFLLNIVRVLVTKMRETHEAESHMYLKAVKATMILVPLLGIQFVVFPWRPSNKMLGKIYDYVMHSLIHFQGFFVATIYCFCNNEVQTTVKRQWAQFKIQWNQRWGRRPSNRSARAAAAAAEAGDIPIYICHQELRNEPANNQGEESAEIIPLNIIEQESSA
Description: The resulting pellet was resuspended, homogenized and centrifuged (20.000 rpm, 15 min) in a buffer containing 20 mM Na-HEPES and 0.1 mM EDTA (pH 7.4, buffer 2). The resulting pellet was resuspended in buffer 2 and protein concentration was measured (BCA protein Assay, Pierce). The homogenate was kept cold during the whole procedure. The membranes were kept at −80° C. until use. The assay was performed in a 384 well Optiplate (PerkinElmer) in a total volume of 40 ul. Membranes were mixed with SPA beads. Final concentration of membranes 35 ng/μL final and SPA beads was 0.05 mg/well. Test-compounds were dissolved in DMSO and further diluted in assay buffer (50 mM Hepes, pH 7.4, 1 mM CaCl2, 5 mM MgCl₂, 0.1% OA and 0.02% Tween20). […] The final mixture was incubated with shaking at 400 rpm for 120 min at 25° C. prior to centrifugation (1500 rpm, 10 min). Samples were analyzed on TopCounter™ (Packard). The IC₅₀ was calculated using (one site binding competition analysis) GraphPad Prism5 as a measure of receptor affinity.
Membranes were prepared in the following way; the cells were rinsed with PBS and incubated with Versene for approximately 5 min before harvesting. The cells were flushed with PBS and the cell-suspension was centrifuged for 5 min at 1000 rpm. Cells were homogenized (Ultrathurrax) in a buffer containing 20 mM Na-HEPES and 10 mM EDTA (pH 7.4) and centrifuged at 20.000 rpm for 15 min. The resulting pellet was resuspended, homogenized and centrifuged (20.000 rpm, 15 min) in a buffer containing 20 mM Na-HEPES and 0.1 mM EDTA (pH 7.4, buffer 2). The resulting pellet was resuspended in buffer 2 and protein concentration was measured (BCA protein Assay, Pierce). The homogenate was kept cold during the whole procedure. The membranes were kept at −80° C. until use. Assay was performed in a 384 well Optiplate (PerkinElmer) in a total volume of 40 ul. Membranes were mixed with SPA beads.

[3] = target: T1, rat calcitonin receptor; assay: ratio IC50 rat calcitonin receptor / IC50 rat amylin receptor
[4] = target: T3, rat amylin receptor (rat calcitonin receptor + rat RAMP 3) (rat, UniProt P32214 25-516; Q9JJ73 23-147); assay: SPA competition vs 125I-rat amylin, membranes with rat CTR + rat RAMP3 (Assay VI)
T3 construct: whole, on cells; Cell membranes of transiently transfected BHK tk'ts 13 cells (Assay VI); also called rAmylin-R; rat amylin 3(a) receptor
T3 sequence (looked up) 1: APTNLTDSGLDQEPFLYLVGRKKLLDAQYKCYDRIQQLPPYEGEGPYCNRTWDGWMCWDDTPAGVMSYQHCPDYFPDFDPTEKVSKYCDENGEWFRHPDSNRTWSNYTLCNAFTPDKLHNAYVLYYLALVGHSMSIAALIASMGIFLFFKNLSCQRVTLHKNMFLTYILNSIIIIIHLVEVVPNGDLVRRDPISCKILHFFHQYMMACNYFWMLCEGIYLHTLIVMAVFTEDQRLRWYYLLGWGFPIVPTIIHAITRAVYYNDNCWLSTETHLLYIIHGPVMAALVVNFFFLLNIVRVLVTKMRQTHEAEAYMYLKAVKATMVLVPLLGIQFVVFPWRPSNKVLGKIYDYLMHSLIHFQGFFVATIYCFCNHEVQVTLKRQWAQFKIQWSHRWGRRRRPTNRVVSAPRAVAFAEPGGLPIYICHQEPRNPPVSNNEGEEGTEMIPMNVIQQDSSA
T3 sequence (looked up) 2: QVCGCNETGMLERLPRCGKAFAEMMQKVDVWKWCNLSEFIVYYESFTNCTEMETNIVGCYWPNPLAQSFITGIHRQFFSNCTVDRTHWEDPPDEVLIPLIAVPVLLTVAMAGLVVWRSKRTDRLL

B1: N^α1N^α1-[(4S)-4-carboxy-4-(19-carboxynonadecanoylamino)butanoyl]-[Glu14,Arg17,Pro21,Pro27,Glu35]-h-amylin (peptide)
peptide: {C20 diacid-γGlu}-KCNTATCATQRLAEFLRHSSPNFGAIPSSTNVGSETY-NH2
modifications: disulfide 2-7
SMILES: CC[C@H](C)[C@H](NC(=O)[C@H](C)NC(=O)CNC(=O)[C@H](Cc1ccccc1)NC(=O)[C@H](CC(N)=O)NC(=O)[C@@H]1CCCN1C(=O)[C@H](CO)NC(=O)[C@H](CO)NC(=O)[C@H](Cc1c[nH]cn1)NC(=O)[C@H](CCCNC(=N)N)NC(=O)[C@H](CC(C)C)NC(=O)[C@H](Cc1ccccc1)NC(=O)[C@H](CCC(=O)O)NC(=O)[C@H](C)NC(=O)[C@H](CC(C)C)NC(=O)[C@H](CCCNC(=N)N)NC(=O)[C@H](CCC(N)=O)NC(=O)[C@@H](NC(=O)[C@H](C)NC(=O)[C@@H]1CSSC[C@H](NC(=O)[C@H](CCCCN)NC(=O)CC[C@H](NC(=O)CCCCCCCCCCCCCCCCCCC(=O)O)C(=O)O)C(=O)N[C@@H](CC(N)=O)C(=O)N[C@@H]([C@@H](C)O)C(=O)N[C@@H](C)C(=O)N[C@@H]([C@@H](C)O)C(=O)N1)[C@@H](C)O)C(=O)N1CCC[C@H]1C(=O)N[C@@H](CO)C(=O)N[C@@H](CO)C(=O)N[C@H](C(=O)N[C@@H](CC(N)=O)C(=O)N[C@H](C(=O)NCC(=O)N[C@@H](CO)C(=O)N[C@@H](CCC(=O)O)C(=O)N[C@H](C(=O)N[C@@H](Cc1ccc(O)cc1)C(N)=O)[C@@H](C)O)C(C)C)[C@@H](C)O
notes: Acylated analogue of human amylin; also called compound 22
IC50 [1]: 62.5 nM
Ratio hCT/hAmylin binding [2]: 12.3
Ratio rCT/rAmylin binding [3]: 28.5
IC50 [4]: 2.19 nM

B2: N^ε1-[2-[2-[2-[[2-[2-[2-[[(4S)-4-carboxy-4-(19-carboxynonadecanoylamino)butanoyl]amino]ethoxy]ethoxy]acetyl]amino]ethoxy]ethoxy]acetyl]-[Arg17,Pro21,Pro27,Glu35 … (peptide)
peptide: K([AEEA-AEEA-γGlu-C20 diacid])CNTATCATQRLANFLRHSSPNFGAIPSSTNVGSETY-NH2
modifications: disulfide 2-7; N-terminus assumed
SMILES: CC[C@H](C)[C@H](NC(=O)[C@H](C)NC(=O)CNC(=O)[C@H](Cc1ccccc1)NC(=O)[C@H](CC(N)=O)NC(=O)[C@@H]1CCCN1C(=O)[C@H](CO)NC(=O)[C@H](CO)NC(=O)[C@H](Cc1c[nH]cn1)NC(=O)[C@H](CCCNC(=N)N)NC(=O)[C@H](CC(C)C)NC(=O)[C@H](Cc1ccccc1)NC(=O)[C@H](CC(N)=O)NC(=O)[C@H](C)NC(=O)[C@H](CC(C)C)NC(=O)[C@H](CCCNC(=N)N)NC(=O)[C@H](CCC(N)=O)NC(=O)[C@@H](NC(=O)[C@H](C)NC(=O)[C@@H]1CSSC[C@H](NC(=O)[C@@H](N)CCCCNC(=O)COCCOCCNC(=O)COCCOCCNC(=O)CC[C@H](NC(=O)CCCCCCCCCCCCCCCCCCC(=O)O)C(=O)O)C(=O)N[C@@H](CC(N)=O)C(=O)N[C@@H]([C@@H](C)O)C(=O)N[C@@H](C)C(=O)N[C@@H]([C@@H](C)O)C(=O)N1)[C@@H](C)O)C(=O)N1CCC[C@H]1C(=O)N[C@@H](CO)C(=O)N[C@@H](CO)C(=O)N[C@H](C(=O)N[C@@H](CC(N)=O)C(=O)N[C@H](C(=O)NCC(=O)N[C@@H](CO)C(=O)N[C@@H](CCC(=O)O)C(=O)N[C@H](C(=O)N[C@@H](Cc1ccc(O)cc1)C(N)=O)[C@@H](C)O)C(C)C)[C@@H](C)O
notes: Acylated analogue of human amylin; also called compound 25
IC50 [1]: 131 nM
Ratio hCT/hAmylin binding [2]: 56.5
Ratio rCT/rAmylin binding [3]: 37.7
IC50 [4]: 3.48 nM

From patent publication US20140087995A1 (published 2014)
